Results: the DeepSol protein solubility set

Assay: soluble on expression in E. coli; label from the status in PepcDB or PDB records

Row | Sequence | soluble on expression in E. coli
1 | MPLVVNVLSTPLNAQPTRTAGFTLPEMMLALSFGSLIALSTAQVLPKLSQQISVLQQHYRLELVMNQAMGAMEKDLRRAGFCHGKCQGEAITIEHYLGETAHSCLIVAYDLNCNGRWEGAKHQESEYFGYRLRNKALESQRGELNCHGRGWEKLFDPRDVTVTHFSVTPLSGQLFKLRLVGHKTGNPAIHHQVTYLIRGNNV | not soluble
2 | GSMSSFLGKWKLSESHNFDAVMSKLGVSWATRQIGNTVTPTVTFTMDGDKMTMLTESTFKNLSCTFKFGEEFDEKTSDGRNVKSVVEKNSESKLTQTQVDPKNTTVIVREVDGDTMKTTVTVGDVTAIRNYKRLS | soluble
3 | MSLNVQGNLFRPLTLPNGLSLENRFVLSPMVTNSSTSEGFVTDDDIAYAVRRAKSAPLQITGAAYITEYGQLFEYGFSVSKDEDIPGLTKLAKAMKSKGAKAVLQLTHAGRFSSHTLARHGYVYGPSPMQLQSPYPHQVKELTHKDILRIIDEYVQATRRAIQAGFDGVEISSAQRLLIQTFFSTFSNQRKDEYGPQTLTNRCRLGLEVFKAVQKVIREEAESDFILGFRATPEETRGSQIGYSIEEFMEFLEKILAIAQVDYLAIASWGHDVFRNTIRSEGVYKGQLVNQVIFEHFGDRVPIMATGGINSASKVFEALQHAHMIGASTPLVVDPEFLQKIKAKCSDQINLRIKVSDLEGLAIPKEGHHHHHH | not soluble
4 | LEIPTSTVVKETLTQLSAHRALLTSNETLRLPVPTHKNHQLCIGEIFQGLDILKNQTVRGGTVERLFQNLSLIKKYIDRQKEKCGEERRRTRQFLDYLQEFLGVLSTEWAIEG | soluble
5 | MSQWTTVCKLDDILPGTGVCALVEQQQIAVFRPRNDEQVYAISNIDPFAQASVLSRGIVAEHQDDLWVASPLKKQHFRLYDGFCLEDGAYSVAAYDTQVTNGNVQISIADSDVAVDNSQPLPLEHHHHHH | soluble
6 | MVKQIESKTAFQEALDAAGDKLVVVDFSATWCGPCKMIKPFFHSLSEKYSNVIFLEVDVDDCQDVASECEVKCMPTFQFFKKGQKVGEFSGANKEKLEATINELV | soluble
7 | MVDLKRLRQEPEVFHRAIREKGVALDLEALLAVDEQLHKQQEVIADKQMSVKEDLDKVEPAVIEAQNAVKSIKKQHLVEVRSMANPPAAVKLALESIALLLGESTTDWKQIRSIIMRENFIPTIVNFSAEEISDAIREKMKKNYMSNPSYNYEIVNRASLAAGPMVKWAIAQLNYADMLKRVEPLRNELQKLEDDAKDNQQKLEALLLQVPLPPWPGAPVGGEEANREIKRVGGPPEFSFPPLDHVALMEKNGWWEPRISQVSGSRSYALKGDLALYELALLRFAMDFMARRGFLPMTLPSYAREKAFLGTGHFPAYRDQVWAIAETDLYLTGTAEVVLNALHSGEILPYEALPLRYAGYAPAFRSEAGSFGKDVRGLMRVHQFHKVEQYVLTEASLEASDRAFQELLENAEEILRLLELPYRLVEVATGDMGPGKWRQVDIEVYLPSEGRYRETHSCSALLDWQARRANLRYRDPEGRVRYAYTLNNTALATPRILAMLLENHQLQDGRVRVPQALIPYMGKEVLEPGAHHHHHH | soluble
8 | MSLILPPIIAASLPPPPGPHAVGYTFLVHPPLSPFSHSSPTLKSTGKPAFQIEEIGYCLFYPGLPEGKRGKEWVSWVPDPFWGVIRGYERFLGGKGGVSWLVKPLGYIAGRLQMPLHPRAPLKPTDKPYPLLIFSHGLAGTRHTYSQYCAALASEGYVVLAVEHRDGSGPAVVLPPEGESKESRVLYYTGVNDISWAEGEEHPVTHARTLQLDIRTREVYEAYHSFKRLLSHEGDLSIKIEGLEGGHSFGGGTILHLLQSPPPSTLLPSLPAKQAISLDPWLEPLPAPSDILQTPLPSSLPPTLVINSAGFTEWPEHWEKLVEIMKGKGILITMIGIGHQAFSDFPLLSPRGYSHAHSMILKVHELSTAFLNKKLLSGAALAGKTPDKGDYEKDEDGVKIKGKAAMKDGDVLLHFADREEGHHHHHH | soluble
9 | GPGSMDRGYPRRREGGASFGGGGFGGVGGFSGGSGGPPAGGPRRRFRSDFDPEEYAPRRKLHGQRPVDFYSPAIRHVLTRLVPRSTPYSYHVAPHEYYTKDLVTASVTNYNASTALCTQWVNTSYHPDSKGGRIRTPLYALQWSPSGRRLLCSTGRGEFLLFNGQSFGVEVKTVAHEDNRPCRAIAWGRRHDLILSGDDAGKLKMWMPNFVFMSEVDTSHRAVREISWAPLELKFCTAGQDGSAKVWDTNTVGAHTATAGASDGNQAVLEEVKLEGHGGDVTTAHWHPYRALIATGSQDTQCRLWDPRTASRGSIAALHGHSQALTCVRWHPDGRTLLSASKDGTVKLWDIRKTQPEVKRFTGHTDAVDKVDWHPTVSDLFASTGADGSVMYWMVAEGDGTMTHGVEEVVHDAAMIEAAHEKFRDKPNPVHCVAWSPLGNILASSGHEVKYWTRNKPGALEEKERGVESDILDEQGHVMV | not soluble
10 | MTAQTPRPYPSPYGRGNWYADTVTDVPASPPLDGDVAAEVCIIGAGFTGLGAALALGSRAVVLEAGRIGCAASGRNGGQVHTGQRRDQAWLEKTVGRDDALALWRLAEEARAHFASLVTAIDCDWRPGMIHARHKPGGEAEDADYLALMADRYGYDQLELIGETALAHELGTDVYHGGLADHGGGHVHPLKLAQGMAAQARAAGAVIHENTRADAWRREGGKIVVETGGGRVTCDQLILSGDGLLNRMAGPAQARVMPINNFIAVTAPLGALADEIIRSNAAVSDSRFVVNYFRKTPDGRLLFGGGENYRPGFPHDIAGLVRKNLAKIYPRLADVEITHAWGGTLGITFSRMPFVGEVAQGVRVAAGYSGQGVMLAPYVGKLLAEAALGETGPVDLLSRLPTPPFPGGRLLRWPLTVAGLSWYALRDRLLEHHHHHH | not soluble
11 | MAIQLSKGQRIDLTKTNPGLTKAVIGLGWDTNKYSGGHDFDLDASAFLVDAHDNCVNDLDFVFYNNLEHPSGGVIHTGDNRTGEGDGDDEQIIVDFSKIPAHIEKIGITVTIHDAEARSQNFGQVSNAFVRVVDEETQNELLRFDLGEDFSIETAVVVCELYRHGGEWKFNAIGSGFSGGLAALCRNYGLQV | not soluble
12 | MLEEQLYLLACIFASRADTRNIKKLSTRLGSQSKYLEILCVLWPELDDPKNLLFLRELEEEVQSPEGEETTDEDVIVELLESDSSLIPLIESDTTTRSNRYHELQEFISKKLNNKTLENFEEWLRERILICNEMIPETPLLYSVLWETAKSKVLSTKFIGWVEGVLKPLDHLNKRLHLIFKINEWEKMPDSELFKIIFDGVEDMQGYIGIADVIEDELAPTLSYGKKWETFITEFFNKQQFSLKSDTNYQLFIKLYYSLEKGVKDNSEASRKLQSNVVDILFHNSENLFNLSSLTHKLDELWSILSGFPDEITIEEQKTITALEMKQFMEFFIKCSTKFSFKEIFAITQEEESAQLAHFSSLCHEEFNKANEISSFLQAMYETVLDISKDDKIFTRISMDEKLYSILEILLQMNEFAYIEAIIERFDYSNNTQIYELLVKFFWHFFNNASNGLRKEPEMKKASQTLQIIQKHMSQRAGTNLTKLEVLLEISDKLSHYSINLNKSHNGARDTAFKPSNILEYRDCPLDIISNLLELNPRLYKDLPTTKSLLFGIYDSLSINREGQTGKVEVDLMVLHIDYALVNLDFGTAYELGKQVFEICQEAGQHMMKALGDEHWLTFYQMGKFVDPNWVDNEIPTEIIVLQMSILGRLLEVCPLEEVEIVTSQWSTLELELSARDLVKDKYALDGQNDNKSKVGGIAREIFHNVTNF | soluble
13 | MASVELSADVPISPQDTWDHVSELSELGEWLVIHEGWRSELPDQLGEGVQIVGVARAMGMRNRVTWRVTKWDPPHEVAMTGSGKGGTKYGVTLTVRPTKGGSALGLRLELGGRALFGPLGSAAARAVKGDVEKSLKQFAELYGLEHHHHHH | not soluble
14 | AALDDLIDTLGECEDTNKDDPPYTGPVVLDPMDSTYLEALGIKEGTIPPEYRKLLEKNEAITGPLPDSPKPMGIDHAIDALSSDFT | soluble
15 | MKEELIERFTRYVKIDTQSNEDSHTVPTTPGQIEFGKLLVEELKEVGLTEVTMDDNGYVMATLPANTDKDVPVIGFLAHLDTATDFTGKNVKPQIHENFDGNAITLNEELNIVLTPEQFPELPSYKGHTIITTDGTTLLGADDKAGLTEIMVAMNYLIHNPQIKHGKIRVAFTPDEEIGRGPAHFDVEAFGASFAYMMDGGPLGGLEYESFNAAGAKLTFNGTNTHPGTAKNKMRNATKLAMEFNGHLPVEEAPEYTEGYEGFYHLLSLNGDVEQSKAYYIIRDFDRKNFEARKNTIENIVKQMQEKYGQDAVVLEMNDQYYNMLEKIEPVREIVDIAYEAMKSLNIEPNIHPIRGGTDGSQLSYMGLPTPNIFTGGENYHGKFEYVSVDVMEKAVQVIIEIARRFEEQA | not soluble
16 | FINNPNRHFANNYHFAKELALELKKQDVLELATAPSLQKRLRFYGIKNSNKFYLKALKQADKHDMDKKIVKVKLGKYEKVYQILNYD | not soluble
17 | MGSDKIHHHHHHMITENIKKEILRRIRNAEKEHNVKVLYAVESGSRAWGFESPNSDYDVRFIYAHPKDWYVSVDLEYKRDVIEYEIVDEIDINGWDIRKALQLFSKSNPAFVEWIQSSIVYVDDHSFAKGARQLLDTVYSVEKGIYHYRSMAKTNYRGYLKEEIVPIKKYFYVLRPLLSIMWLEKYQKPAPIEFVKLRTLIPTGSTIDQAISDLLERKKRSLEKEYAPAVPVLNAFIESELDRLENYQDSPQRNSSHMESLNSLFRVSIS | not soluble
18 | VNAYDVLKRHHTVLKGLGRKVGEAPVNSEERHVLFDEMLIELDIHFRIEDDLYYPALSAAGKPITGTHAEHRQVVDQLATLLRTPQRAPGYEEEWNVFRTVLEAHADVEERDMIPAPTPVHITDAELEELGDKMAARIEQLRGSPLYTLRTKGKADLLKAI | not soluble
19 | MPSKLFSRRSFVTTACAGLAALALPLPAVALTEARAASLVNEVVTEINRVIASGKSENAMIRDFEKLFVRYGDVPIMARYALGPDARTASPAQLKSFTQAFQGYISRKYGKRFREFIGGEVTVKTARKIKAGYEVKTSVKLQGQAPFDVTFLVSDKSGKDKFFNMFIEGVNLLLTERTEIGSMLDRRKGDLNALIRDLASAGLEHHHHHH | soluble
20 | ISAVIVGTAEDIYSRVLALMCQRKGAVSICLQHGALMGDEAFIPVFTTYQAVFGAYEAEWFIRKGCKPEQILVTGHPRFDQIFNRTPMDMSIFYRKLAFQPTKKIVLIATQPFSEDFYSGVLQGLSDQKQLQIIIKPHPWEIGKNKLDLYHEAAKKHQACRVIKKELELYDLLPYVDAAVTQTSTVGLEAMLFQKPVLIGKSSGNRSYPYYESLGDFMFDQPDELAHTLVEVLRSP | not soluble
21 | GPGSMRGVYPYLFAEDMRSRGAGEPAKKEVKKNKFVATINWELFTRVERMDVVFSPRPKGVTTGNEGDIADGCETGAPAVWSFVPVGVPHGENYRANAFLVPMHDKSESPRLLLYVSDISELEDRFFTDLARSKVLLGVDPAVPIEVLVLDMLSRRPYVAHLHVEASIAAAKRINAAKTYYVGMSHRINYDEMMQELQQLGLGATMEMGYDGCVVSVGDSGLQHLSGRL | not soluble
22 | MSLKITGFRSLTTVHRWGRPVGDANGFVAQGVTEVPVLLVETDGGLTGVGLGAHGDAERVFPALDGQDPRAVTTLYDRMLAHTFKSGHAGTAFGTIGAFDTALWDLKAKMAGEPLWRTLGAADRFVPGYASGLDIALDEEELVALYSGWAARGFTGAKLKGGLDTERDIGRLRAVAEVLRPNTRSPALMLDVNESWGRHQAVRLLARIEDRVELAWIEEPVRRWDARGHRAVGRAGRTAVASGENLTGLEQFRPLLAADALQVVQAAGVWGITHFLRVATLAHGHDLPVSPVGYHANPLAHAAAAVPNHLVTEVQDIGTPAGLTVDQAIEDGGIVLGDAPGLGITVDESALAAPRQNAGWARPDGPHVRPRDAGLRLVPEPGPPGPAARVRAGTPSLGVPGPVHRPARSEHTERENTPEGHHHHHH | not soluble
